To fix the notation:
T1: human tankyrase 2 ankyrin repeat cluster 4 (TNKS2 ARC4, residues 488-649) (human, UniProt Q9H2K2 488-649)
T1 sequence (looked up): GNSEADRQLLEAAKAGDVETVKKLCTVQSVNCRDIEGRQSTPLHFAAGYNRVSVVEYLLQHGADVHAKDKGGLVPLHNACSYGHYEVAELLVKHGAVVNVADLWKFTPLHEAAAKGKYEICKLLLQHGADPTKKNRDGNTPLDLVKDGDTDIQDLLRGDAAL

The values below come from paper PMC5358875 (Journal of the American Chemical Society, 2017).

As a reminder, the Kd is a measure of binding affinity in units of concentration.

Bridge positions count the residues as written; N and C are the ends. Square brackets hold non-standard residues; d marks the D form. Ends that are not written are not given here. * marks the point of attachment. 5‑TAMRA = CN(C)c1ccc2c(-c3ccc(C(=O)*)cc3C(=O)[O-])c3ccc(N(C)C)cc3[o+]c2c1; n3 = azido unnatural amino acid, 3 CH2 in side chain; Lys(N3) = [N-]=[N+]=NCCCC[C@H](N)C(=O)O; Dap(N3) = [N-]=[N+]=NC[C@H](N)C(=O)O; Aha = [N-]=[N+]=NCC[C@H](N)C(=O)O; m3c = not defined here; m3 = not defined here; m4 = not defined here; m5 = not defined here; Ahx = NCCCCCC(=O)O

The first experiment deals with T1, human tankyrase 2 ankyrin repeat …. The experiment in a line: fluorescence polarisation; competition: unlabeled peptide or Axin1 fragment diluted 2-fold serially against TAMRA-labeled pep1 (20 nM) with TNKS2 ARC4 (3 uM); PBS, 0.05% Tween 20; 30 min, 25 C. Particulars: both partners purified. On the technique in general: Polarisation of emitted light reports the rotation of a fluorescent probe.
Take Ac-RE[Lys(N3)]GDGE[Lys(N3)] (bridge 3-8; not fully specified (bridges)) [cp5n4m5c]: the affinity, expressed as Kd, was 13.9 ± 2.1 µM.

In the case of Ac-RE[Lys(N3)]GDG[Lys(N3)]E (bridge 3-7; not fully specified (bridges)) [cp4n4m5c], the Kd was found to be 16.7 ± 2 µM.

For the molecule Ac-R[n3]AGDG[n3]E (bridge 2-7; not fully specified (bridges)) [cp2n3m7N], binding was characterised by a dissociation constant (Kd) of 14.7 ± 0.8 µM.

Consider Ac-R[Aha]AGDG[Aha]E (bridge 2-7; not fully specified (bridges)) [cp2n2m7N], for which the Kd amounted to 53.3 ± 8.3 µM.

Turning to Ac-RE[Lys(N3)]GDG[Lys(N3)]E-NH2 (bridge 3-7; not fully specified (bridges)) [cp4n4m5], the Kd amounted to 2.8 ± 0.1 µM.

Take Ac-R[Lys(N3)]AGDG[Lys(N3)]E (bridge 2-7; not fully specified (bridges)) [cp2n4m7N]: the Kd amounted to 32.4 ± 1.7 µM.

The molecule Ac-R[Lys(N3)]AGDG[Lys(N3)]E (bridge 2-7; not fully specified (bridges)) [cp2n4m5] yielded a Kd of 14.1 ± 4 µM. Compared with the last molecule, the Kd is about 2.3-fold lower.

For Ac-R[Lys(N3)]AGDGE[Lys(N3)] (bridge 2-8; not fully specified (bridges)) [cp3n4m5], the Kd worked out at 23.4 ± 4.2 µM.

In turn, Ac-R[Lys(N3)]AGDGE[Lys(N3)] (bridge 2-8; not fully specified (bridges)) [cp3n4m7N] came in with a Kd of 35.5 ± 2.5 µM.

On to Ac-RE[Lys(N3)]GDGE[Lys(N3)] (bridge 3-8; not fully specified (bridges)) [cp5n4m5], for which the Kd came to 7.9 ± 1.2 µM.

The molecule Ac-RE[Lys(N3)]GDG[Lys(N3)]E (bridge 3-7; not fully specified (bridges)) [cp4n4m7N] showed a Kd of 6.5 ± 0.2 µM.

The target is the same in the next experiment. Nature of the experiment: fluorescence polarisation; direct: TNKS2 ARC4 or TNKS1 ARC2-3 diluted 2-fold serially (40-0 uM, 50 uL) and mixed with TAMRA-labeled peptide (20 nM, 50 uL); 50 mM HEPES pH 7.5, 300 mM NaCl, 2 mM DTT, 0.05% Tween 20; 30 min, 25 C. Particulars: both partners purified.
With {5‑TAMRA-Ahx}-RE[Aha]GDG[n3]E (triazole 3-7 via m5; reading uncertain) [T-cp4n23m5], the affinity, expressed as Kd, was 4.3 ± 0.2 µM.

The molecule {5‑TAMRA-Ahx}-RE[Dap(N3)]GDG[Aha]E (triazole 3-7 via m5; reading uncertain) [T-cp4n12m5] registered an equilibrium dissociation constant (Kd) of 7.7 ± 0.3 µM.

Regarding {5‑TAMRA-Ahx}-RE[n3]GDG[Aha]E (triazole 3-7 via m5; reading uncertain) [T-cp4n32m5], the Kd is 4.2 ± 0.12 µM. Against the preceding molecule, the Kd is about 1.8-fold lower.

As for {5‑TAMRA-Ahx}-RE[Aha]GDG[n3]E (triazole 3-7 via m3c; reading uncertain) [T-cp4n23m3c], the Kd turned out to be 15.5 ± 0.6 µM.

{5‑TAMRA-Ahx}-RE[Aha]GDG[Dap(N3)]E (triazole 3-7 via m3; reading uncertain) [T-cp4n21m3]: the equilibrium dissociation constant (Kd) was found to be 22.8 ± 1.3 µM.

In turn, {5‑TAMRA-Ahx}-RE[n3]GDG[n3]E (bridge 3-7; not fully specified (bridges)) [T-cp4n3m3c] showed a Kd of 15.4 ± 0.6 µM. The Kd values of the last two molecules are within 1.5-fold of each other.

{5‑TAMRA-Ahx}-RE[Aha]GDG[n3]E (triazole 3-7 via m4; reading uncertain) [T-cp4n23m4] registered a Kd of 1.7 ± 0.05 µM.

Consider {5‑TAMRA-Ahx}-RE[Dap(N3)]GDG[Aha]E (triazole 3-7 via m4; reading uncertain) [T-cp4n12m4], for which the affinity, expressed as Kd, was 8.9 ± 0.3 µM.

On to {5‑TAMRA-Ahx}-RE[Aha]GDG[Dap(N3)]E (triazole 3-7 via m5; reading uncertain) [T-cp4n21m5], for which the Kd came to 13.6 ± 1.1 µM.

The molecule {5‑TAMRA-Ahx}-RE[Aha]GDG[Dap(N3)]E (triazole 3-7 via m4; reading uncertain) [T-cp4n21m4] gave a Kd of 5.8 ± 0.2 µM.

Regarding {5‑TAMRA-Ahx}-RE[n3]GDG[Aha]E (triazole 3-7 via m4; reading uncertain) [T-cp4n32m4], the Kd was 11.1 ± 0.9 µM.

Take {5‑TAMRA-Ahx}-RE[n3]GDG[Aha]E (triazole 3-7 via m3c; reading uncertain) [T-cp4n32m3c]: the affinity, expressed as Kd, was 15.3 ± 0.6 µM.

Take {5‑TAMRA-Ahx}-RE[Dap(N3)]GDG[Aha]E (triazole 3-7 via m3; reading uncertain) [T-cp4n12m3]: the Kd turned out to be 12.5 ± 0.5 µM. The Kd values of the last two molecules are within 1.5-fold of each other.

In the case of {5‑TAMRA-Ahx}-RE[n3]GDG[Aha]E (triazole 3-7 via m3; reading uncertain) [T-cp4n32m3], the Kd is 6.1 ± 0.2 µM.

In turn, {5‑TAMRA-Ahx}-RE[Dap(N3)]GDG[Dap(N3)]E (triazole 3-7 via m4; reading uncertain) [T-cp4n1m4] came in with a Kd of 61.8 ± 33.9 µM.
